From patent US20200072831A1

How the values were obtained:
[1] = target: DRB5*01:01 HLA Class II antigen expressed in a K cell line host (K562), lacking a CLIP peptide in the peptide binding groove (human); experiment: Luminex bead assay, Streptavidin-PE detection of biotinylated CLIP; no-peptide control beads
[2] = target: DRB1*03:01 HLA Class II antigen loaded in vitro with biotinylated CLIP peptide (human); experiment: Luminex bead assay, Streptavidin-PE detection of biotinylated CLIP loaded on the antigen
DRB1*03:01 HLA Class II antigen loaded in vitro with biotinylated CLIP peptide (human), sequence (P04233 97-121 limits assumed, chain 3 of 3, other chains not shown): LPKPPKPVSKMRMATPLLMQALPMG

[3] = target: DRB5*01:01 HLA Class II antigen (K cell line host) loaded in vitro with biotinylated CLIP peptide (human); experiment: as above

## Anti-biotinylated CLIP (Streptavidin-PE, to detect the presence of the biotinylated CLIP) (from UniProt P22629 37-163)
[1]
  MFI: 840 MFI
[2]
  MFI: 2810 MFI
[3]
  MFI: 4600 MFI
